The target in the test is T1, IFNG receptors on HeLa cells (UniProt P15260).
T1 sequence (looked up): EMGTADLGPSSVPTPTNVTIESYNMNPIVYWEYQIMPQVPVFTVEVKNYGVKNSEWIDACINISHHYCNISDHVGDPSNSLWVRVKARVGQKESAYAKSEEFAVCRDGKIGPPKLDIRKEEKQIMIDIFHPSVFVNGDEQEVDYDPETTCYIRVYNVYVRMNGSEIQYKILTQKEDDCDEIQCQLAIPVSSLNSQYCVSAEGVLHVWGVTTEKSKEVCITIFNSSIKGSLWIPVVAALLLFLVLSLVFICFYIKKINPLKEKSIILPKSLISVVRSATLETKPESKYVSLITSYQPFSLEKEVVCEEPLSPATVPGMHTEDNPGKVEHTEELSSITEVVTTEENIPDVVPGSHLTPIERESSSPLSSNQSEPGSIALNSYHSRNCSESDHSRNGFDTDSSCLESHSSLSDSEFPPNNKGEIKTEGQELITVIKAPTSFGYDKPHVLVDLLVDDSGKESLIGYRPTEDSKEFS
Briefly: cell-based or functional assay.
On to “E38C + S99T (full-length + 10 kDa mPEG) (from UniProt P01579 24-161) (ligand)”, for which the Activity relative to non-PEGylated product subjected to “PEGylation procedure” (%), Primary Assay stood at 41%.

“E38C + S99T (full-length) (from UniProt P01579 24-161) (ligand)”: the % activity of full-length wt (AU/ml basis), Primary Assay is 71%; the % activity of full-length wt (specific activity), Primary Assay was 16%; the Activity (AU/ml), Primary Assay (ISRE-luciferase in HeLa cells), after transient transfection amounted to 1e+07 AU/ml; the Specific activity (AU/mg), Primary Assay (ISRE-luciferase in HeLa cells), after purification came out at 3.4e+06 AU/mg.

“E38N (full-length) (from UniProt P01579 24-161) (ligand)” returned a % activity of full-length wt (AU/ml basis), Primary Assay of 100% and an Activity (AU/ml), Primary Assay (ISRE-luciferase in HeLa cells), after transient transfection of 1.4e+07 AU/ml.

As for “E38N + K61T (full-length) (from UniProt P01579 24-161) (ligand)”, the % activity of full-length wt (AU/ml basis), Primary Assay was 86% and the Activity (AU/ml), Primary Assay (ISRE-luciferase in HeLa cells), after transient transfection was found to be 1.2e+07 AU/ml.

For the substance “E38N + K61T + S99T (full-length) (from UniProt P01579 24-161) (ligand)”, the % activity of full-length wt (AU/ml basis), Primary Assay stood at 10% and the Activity (AU/ml), Primary Assay (ISRE-luciferase in HeLa cells), after transient transfection is 1.4e+06 AU/ml.

“E38N + S40T (full-length) (from UniProt P01579 24-161) (ligand)” yielded a % activity of full-length wt (AU/ml basis), Primary Assay of 71% and an Activity (AU/ml), Primary Assay (ISRE-luciferase in HeLa cells), after transient transfection of 9.9e+06 AU/ml.

On to “E38N + S40T + K94C + S99T (full-length) (from UniProt P01579 24-161) (ligand)”, for which the % activity of full-length wt (AU/ml basis), Primary Assay stood at 7% and the Activity (AU/ml), Primary Assay (ISRE-luciferase in HeLa cells), after transient transfection was 940000 AU/ml.

In turn, “E38N + S40T + N59C + S99T (full-length) (from UniProt P01579 24-161) (ligand)” yielded a % activity of full-length wt (AU/ml basis), Primary Assay of 79% and an Activity (AU/ml), Primary Assay (ISRE-luciferase in HeLa cells), after transient transfection of 1.1e+07 AU/ml.

In turn, “E38N + S40T + N83C + S99T (full-length) (from UniProt P01579 24-161) (ligand)” gave a % activity of full-length wt (AU/ml basis), Primary Assay of 5% and an Activity (AU/ml), Primary Assay (ISRE-luciferase in HeLa cells), after transient transfection of 720000 AU/ml.

With “E38N + S40T + S99T (full-length) (from UniProt P01579 24-161) (ligand)”, the % activity of full-length wt (AU/ml basis), Primary Assay came out at 93%; the % activity of full-length wt (specific activity), Primary Assay came to 67%; the Activity (AU/ml), Primary Assay (ISRE-luciferase in HeLa cells), after transient transfection turned out to be 1.3e+07 AU/ml; the Specific activity (AU/mg), Primary Assay (ISRE-luciferase in HeLa cells), after purification came to 1.4e+07 AU/mg.

Turning to “E38N + S40T + S99T (truncated after Leu135) (from UniProt P01579 24-158) (ligand)”, the % activity of full-length wt (AU/ml basis), Primary Assay amounted to 29% and the Activity (AU/ml), Primary Assay (ISRE-luciferase in HeLa cells), after transient transfection is 4e+06 AU/ml.

“E38N + S40T + S99T + N104C (full-length) (from UniProt P01579 24-161) (ligand)” displayed a % activity of full-length wt (AU/ml basis), Primary Assay of 16% and an Activity (AU/ml), Primary Assay (ISRE-luciferase in HeLa cells), after transient transfection of 2.3e+06 AU/ml.

In turn, “N10C + E38N + S40T + S99T (full-length) (from UniProt P01579 24-161) (ligand)” gave a % activity of full-length wt (AU/ml basis), Primary Assay of 11% and an Activity (AU/ml), Primary Assay (ISRE-luciferase in HeLa cells), after transient transfection of 1.5e+06 AU/ml.

For “N10C + S99T (full-length + 5 kDa mPEG) (from UniProt P01579 24-161) (ligand)”, the Activity relative to non-PEGylated product subjected to “PEGylation procedure” (%), Primary Assay was 23%.

“N10C + S99T (full-length) (from UniProt P01579 24-161) (ligand)”: the % activity of full-length wt (AU/ml basis), Primary Assay was 18%; the % activity of full-length wt (specific activity), Primary Assay was determined as 18%; the Activity (AU/ml), Primary Assay (ISRE-luciferase in HeLa cells), after transient transfection was 2.5e+06 AU/ml; the Specific activity (AU/mg), Primary Assay (ISRE-luciferase in HeLa cells), after purification came out at 3.8e+06 AU/mg.

“N16C + E38N + S40T + S99T (full-length) (from UniProt P01579 24-161) (ligand)” yielded a % activity of full-length wt (AU/ml basis), Primary Assay of 26% and an Activity (AU/ml), Primary Assay (ISRE-luciferase in HeLa cells), after transient transfection of 3.7e+06 AU/ml.

Regarding “N16C + S99T (full-length + 5 kDa mPEG) (from UniProt P01579 24-161) (ligand)”, the Activity relative to non-PEGylated product subjected to “PEGylation procedure” (%), Primary Assay came to 59%.

Take “N16C + S99T (full-length + 10 kDa mPEG) (from UniProt P01579 24-161) (ligand)”: the % activity of full-length wt (specific activity), Primary Assay was 6%; the Specific activity (AU/mg), Primary Assay (ISRE-luciferase in HeLa cells), after purification came to 1.3e+06 AU/mg; the specific activity relative to the corresponding non-PEGylated IFNG variant, Primary Assay is 15%.

With “N16C + S99T (full-length) (from UniProt P01579 24-161) (ligand)”, the % activity of full-length wt (AU/ml basis), Primary Assay turned out to be 79%; the % activity of full-length wt (specific activity), Primary Assay was found to be 11%; the Activity (AU/ml), Primary Assay (ISRE-luciferase in HeLa cells), after transient transfection is 1.1e+07 AU/ml; the Specific activity (AU/mg), Primary Assay (ISRE-luciferase in HeLa cells), after purification stood at 2.3e+06 AU/mg.

Turning to “N59C + S99T (full-length + 5 kDa mPEG) (from UniProt P01579 24-161) (ligand)”, the % activity of full-length wt (specific activity), Primary Assay turned out to be 11%; the Specific activity (AU/mg), Primary Assay (ISRE-luciferase in HeLa cells), after purification was determined as 2.4e+06 AU/mg; the specific activity relative to the corresponding non-PEGylated IFNG variant, Primary Assay worked out at 15%.

Consider “N59C + S99T (full-length) (from UniProt P01579 24-161) (ligand)”, for which the % activity of full-length wt (specific activity), Primary Assay worked out at 30% and the Specific activity (AU/mg), Primary Assay (ISRE-luciferase in HeLa cells), after purification stood at 6.3e+06 AU/mg.

Turning to “S99T (full-length) (from UniProt P01579 24-161) (ligand)”, the % activity of full-length wt (AU/ml basis), Primary Assay is 36%; the % activity of full-length wt (specific activity), Primary Assay is 105%; the Activity (AU/ml), Primary Assay (ISRE-luciferase in HeLa cells), after transient transfection came out at 5.1e+06 AU/ml; the Specific activity (AU/mg), Primary Assay (ISRE-luciferase in HeLa cells), after purification is 2.2e+07 AU/mg.

“S99T (truncated after Leu135) (from UniProt P01579 24-158) (ligand)” yielded a % activity of full-length wt (AU/ml basis), Primary Assay of 25% and an Activity (AU/ml), Primary Assay (ISRE-luciferase in HeLa cells), after transient transfection of 3.5e+06 AU/ml.

Consider “S99T + N104C (full-length + 5 kDa mPEG) (from UniProt P01579 24-161) (ligand)”, for which the Activity relative to non-PEGylated product subjected to “PEGylation procedure” (%), Primary Assay worked out at 42%.

In the case of “S99T + N104C (full-length) (from UniProt P01579 24-161) (ligand)”, the % activity of full-length wt (AU/ml basis), Primary Assay turned out to be 36%; the % activity of full-length wt (specific activity), Primary Assay worked out at 17%; the Activity (AU/ml), Primary Assay (ISRE-luciferase in HeLa cells), after transient transfection was determined as 5e+06 AU/ml; the Specific activity (AU/mg), Primary Assay (ISRE-luciferase in HeLa cells), after purification was 3.5e+06 AU/mg.

For the substance “Wild-type (full-length) rhuIFNG (from UniProt P01579 24-161) (ligand)”, the Activity (AU/ml), Primary Assay (ISRE-luciferase in HeLa cells), after transient transfection was 1.4e+07 AU/ml and the Specific activity (AU/mg), Primary Assay (ISRE-luciferase in HeLa cells), after purification is 2.1e+07 AU/mg.

For the substance “Wild-type (truncated after Leu135) (from UniProt P01579 24-158) (ligand)”, the % activity of full-length wt (AU/ml basis), Primary Assay is 45% and the Activity (AU/ml), Primary Assay (ISRE-luciferase in HeLa cells), after transient transfection stood at 6.3e+06 AU/ml.
